Data on 1 molecule can be found in publication PMC8752090.

The assay concerns the target adaptor protein complex 2 (AP-2), P17426;Q9DBG3;P84091;P62743. The assay is described as follows: GST pull-down from brain lysate, immunoblot band quantification. To be noted: chain shown with the change; n = 3 independent experiments; parent: est. 1.0; read off a plot.

B1: GST-VGLUT1 C-terminus-WT (cytoplasmic C-terminal region of VGLUT1, a.a. 496-560), Q3TXX4 F510A; V511A (protein)
chain: PWAEPEEMSEEKCGAAGHDQLAGSDESEMEDEAEPPGAPPAPPPSYGATHSTVQPPRPPPPVRDY
As for B1, the ratio to parent was found to be 0.19.
